Data as given in the NTF2 design screens of Basanta et al. (2020).

Experiment: protease stability score; higher = more stable; yeast display proteolysis, trypsin and chymotrypsin;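 note: log10 excess protease needed over predicted unfolded state with 0 meaning unfolded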

| Sequence | protease stability score |
| --- | --- |
| DEKALRSAEEWVRQLNENNEDTLMKLADPNAEFSIGDKTVHGREQLREWIKKTLDKMHVHVKDVKYTDSGDKAQIDIDRVNEHNGRPDEDNVEMTMHLDNGTIHSVDVRKKS | -0.303 |
| DEDKTMRELIRRLDKNLKEGDPSKAREQADKDARANIGEKRVTGRKRLDEEVKTLLDSYDHIRVHLKEVRVENGSAVARVDYHYDQNGQEKSKEVILHARFQGDRLTLEQMTMP | 0.043 |
| EEETVKRMAEHVNHALQENDPKKMNDLFDENVQVDVGDTRIHGREDLTKYVKTFKQRVDQVEIQRVDVQGNTVVILMVLEHNGHRRQVVVIMHFHNGKVKEMRVTDK | 0.097 |
| DEEQRKRMAEKFRNAIQRNDDDKIRELAPPDVSARYGDKEVHGREELLKYIDRLHKEADRIDVHDLHVKGETIILTLVVNINGHNHRYNFVAHIHDGRMHRMKVESR | 1.21 |
| DDDLVRKLNHMVKVMQNGDPDKIVDQMDPNARLIVGDKNVHGRDEARRFMEKVNKHLRFEIKSVTLHDRPNNANADVDANFHINGRPVRLKYIIVVSVHNGRIKEVQLRLSEDQERKLEK | 0.71 |
| DEEKATEQAKEAIKALHTGDPRTMVEMLDKDARLRVGDNEYKGRDKVRNAMEEFTKRADSVRVDSVSVHGDKAVIHFKVRYNGQTIEVVLSLSVTNGRIVKAELDYRDEDTLRRLQK | 1.11 |
| DEKDVHLARKYYQNFRDGDPDKLKRMADKDAKMSVGDKHLHGMEKIATDLQREHEEMHIDRKIDDVKVNGDKAIVHLKVNINVDGKPTSDSVTVIFKFENGKITTLEYRFDPDKQRKINK | 0.294 |
| DQEHYEKIAKHMSDVLRTGNPDDMLRMIDPNARLEVGDKRWNGRHKIKKFLETFVKSADHVKVRHVEVSGNDITLDVVAHVNGRSVKFNVHANVHNGRIKEVKFDPRAWRDLQT | 0.505 |
| DDHDRQKLSEWYKNYESGDPDKLVDMADPNARFQYGDKHVRGREQIHRQWRKELTEQRFTVVKMSASDHNGVIDMKFTNEVEHNGRPDRRKFSFTFRVRNGQAQEFDLQTTK | 0.014 |
| DEHAKELAKEFMEAWTKGDPDKAATLADPNVRANVGEFNVHGREDAHRAVDRFRRQMHVELDIRSMRVQGNKVQVDVSVTVTHNGRPHSNRYVVLIIFHNGRIRSVHRRREG | 0.176 |
| DDEKVKSFMKNVVRAWKHNNPDEMAKLADPNARAHVGDKEVHGRHQVKTMITEQLTRVDHVDIRHVHANGDKITIHATLNVNGRTRSVKIEIRFDNGKITDIRMDPDAVKEIKK | 0.199 |
| DDEMKKVVSRFVEAEKQGNPEDLKRNADPNVKVQVGDKTVNGRDKWATDLHKRRRDIDVEREYKSVHLTGDHLTMDVEAVYNVNGTPHKMRVTLRVVAHNGKIKKMHVQLSEEELRRLDR | 0.229 |
| DESVLEMAERIIEAFNNGDPERAVNQADPNVKITVGDKSITGREDLRRELEKQLKEQEQHIQVLRVTDHNGQAQMDIRMTSEKNGNPDHRRATVQFHATNGKLQTMRVDQRG | -0.599 |
| DDRIKELADRFMNALQTNDPDKINNLVDPNAKITVGDKSVRGDEQINRTMDQRKRELRQDYDVRSVEVHGNTAIIDVHVTFEHNGEPHKEKQTIIIHVKNGRAVDIKITRHS | -0.326 |
| DEDKTAEQVAETIQKIWEKGDPTKMEKLFDPNASINVGEKTVKGREKIFTEAKKLMKEADHVRVTVQHVEARGDHVIVRFTFTLHVNGKNRKHEVEINAEDKNGHLRARDIKMR | 0.351 |
| DDHKAQRAVDIAKNWLTGNEEELQKQASEEVRFDYGDKTVHGMTEARTQAKRFHERMRADAKVHSFDVTGDKAVVNMVFEQEHNGRPTNRRYRVILDLHNGKVKEVQIDDDG | -0.069 |
| EKEVMDTLVKIVNEGNFEDLAKMADKDVQVRIGNKNLHGKEQLQKFMERFTRQADHIRVHRYQFSNGRFQFDFVIVVNGKRFRVTMHVEVSNGRIKKLVINVTDEDAEKVLREAYG | 1.38 |
| EEQAVEVMNRYIRALQTGSKQDLRDNMDPNVKAIYGDSVIHGREEIARHLVKTMKDIRVENDVRDMRFDGDKIELRAKWVFEHDGRPRTNKYVVHAVAHDGKIKHINLQEDQ | -0.058 |
| DHEDKERASQAIEAWNTGDPREFEKQFDPNARVHVGDRHIHGREQFEDEMKRHKDESRYEISLRNVTVDNGRIKLDVVLSVDENGRPETQHLKIDLELHNGRVVSMQFNHKK | -0.209 |
| DDRDAERLVELWKTGDPDKFANHMRDDVRVQIGDKSVRGRDEAHKILERLRQQIDHWEIKDYEVHGERVIIHAVATVNGRHLNFVIVVQMHNGRIQSVQYKVTSEDDQHRIKKLLD | 0.326 |
| DDHVLREVMKSWKDNDWKTLQDQVDPNARMKVGDNKVSGREQIEDLLQHLQDRIDHVEIKSMQHQGDKANFRFQFVVNGQRVDVVARVKAHNGKIQEWQVEVRNDELKEQLERAQK | 0.628 |
| DETALRIAEDWFRALQNGNPERMQENVDPNARVQIGDKELHGREQIHELAQKIKEEMRIEVNITHVDVHGEHLRLEFDIRVDINGKPVTNHNTAEFNVENGSIKHISFDIDPRQLNKMQK | 0.746 |
| DEEDQHVAKEFFSAMLTNDTDKLRRLADPNVRAHIGDKVIHGKEQFVRHVHELVEHQRVQVDRMDLDVDGERVRVEMRHVNEENGQPNDRKAKNSMDIHNGEIKYVTIKTQS | -0.437 |
| DESARDIASTIVSALHNNNPSQFSENLDKDATLNIGDKRIHGKERAEEHLSNQIKSLRIQFDDYQVRVHNGDVIINLDYKRDHNGEPRRVKQRVTIQIHNGRAQSVVVKETS | 0.365 |
| DDTRVKFALHLIKLEETGDEDKLRELMDPNAKISVGDKTYHGREEIVRELRRENHEMRVRIKQFRSTASGEKVRITMDAEFEHNGKPDRFELEVVFDFTNGRVKHIELHERR | 1.22 |

| Sequence | protease stability score |
| --- | --- |
| DEELEEQVKEFFHAIETGDEDKLRELADPNARFHVGEKNLHGMKDVAERIRREREHIRYTVQIDSIKADGNRAHVRVVAEKEHNGNPRHFVLNVEIVRHNGRIRKVEATEDK | 0.938 |
| DEKEIRKLLQKMAKMFEEGNNEELRKLGDDDLQVTYGDEEYKGPDDLVKVLETVKKLGAKVEYKEVHVEGDTVTVKVEAEMGGRKARYKVKYQADGNKVKRFQVEYSEDAQKAIKEG | 1.28 |
| DEKEAKKLLEQFAKKVVNGDYEEVVKHVKDDGEAEYGDERKHGPDAVETFIRKYQKLGIKVTYDEVHVEGDTVTVKVRADYAGQTAHFKFQYHVRDQRLDRVEVKYDETAQKMIKHG | 0.542 |
| DEELEDRWRKMLEARKTGDEDRIKENMDPNAELNVGDKTYHGHDKLAKTLVDEMRTIRVEYKKFSMDARGDTVEAKYRVIENHNGKPQEDTHRWSATNRGDKIQHVDVRSDK | -0.435 |
| DEDKMLKVAKEAVEAITKGNAEQIKKVGKEGVQVTFGDEKYHGPDQLEEYVKKVKDQGNHIEYKEQEFKGDTATVKTEAEKGDQKVTFEVHYQVKGNKLDRLEVRFDKEQQKKFEQS | -0.256 |
| DHDAKKRIHQLWHALQTGNPDEVVKQVDKDVKVRVGEKDIHGRDQVREDVEREQKDMRVEYKSIRVEMNGDKARVEVHYQHERDGQPRTHRADYEIKWQNGKVKEMRASQKP | -0.244 |
| DEEVVRQIEDNLNAQRRNDHEKLKENMDPNATVNVGDKQIHGMSQFAQHVRDMFRHIRRSIKDFRIEVRPNHANVDVKFEVNINGKPESMSANVSVRVTNGTVQEMTIRVDPEHVKRIRR | 0.816 |
| DEHTEKKRADEIKHAMRENDEKKLNDQMPPDVRMDVGDKQLHGRDEVIRHLQTQLRHADHVEIKHVEVTNGRVSIDAVFDVNGTRKRQVVVFVFHNGRAKEIHIEDK | 0.861 |
| DEDVKKLFEDWLRALQTNNPDEVNEMADPNVTVKVGNKVVHGREQLNKDLKEETKHIRVTYHHVDLTVHNGRAKARLDVTVNVNGRPVRFQFNVTVHARNGRVVSMHVQIPHEVLETIKQ | 1.57 |
| DDDKVRESVNNMLHAMQNGDHDRFRKMADENVRIEVGDKEYKGREKAAEHIKEVVDRVDHIQVESVKVHNGRARANLNMVVNGHSARATLNVNANNGRVVVVEMDPDQIRKAES | -0.629 |
| DDEEQKERAEEIIKAIQTGDPQQFNRQADPNVEVKIGDTNVHGRENAARNIAERVQRADHIQVETMDVDGNNVVIDMVIQHNGRTKRFIVTLHFQNGRVKKMSIEDS | 0.459 |
| DRNANKLATKVFTAYNRNNPKQLVENLDPNAELSYGDKEYHGRENMKKMVEDIKREMQLSIHIDHVDVHNGQARVEFVQENEHNGQPSRKHYVAHFDHENGRVKKLVFKESG | -0.106 |
| DEKNLNQLKDLIKTNDEERIHELMDPNVRLVIGDQEVQGRENVFKVLKRWRERADHVRYNDLKLHDGRAFADVEINVNGENIRVHYVYVAHNGRIKEIKVTATDEDEQRKVEDNYK | 1.37 |
| DEKKIYEVLHKAVQMYVSGNDEEVRKLLKKDAEIEVADHKYRGVDEVVKVVDQFRKYGVELQIDDAKFDGNKVNAELTLHAGGETWKFTVTAEADGGKVDKVTFHVTEEVKKRIQKG | -0.045 |
| SEEELRKVVEKLLTYVIEGNPDDVKKYISPNVQVRYFDKTVQGRDEVMKFLRRAKKHGYRLQAKHVQLEGDRATTELDYQAGDQEATVRVEATVNGGRLEKLEVRDSPKVKKVLKDG | 1.56 |
| DKEDVKKRAEELAEVLQTGDPRKMRDLADKDARLSIGDKEYHGREEISKWVDHMRRDVDHFKLDDVQASGNKMRLTFVLQHNGRRSKFDLDVKYSNGRAKELRFDRK | 0.267 |
| DDRQIEVLKDYIKAVQQNDPDRMRQNADPNATFNVGDKRYHGMTEYAEEVAKHLKEMRFEIRDIRLRDHNGKVHVEYEAEYEVNGQPFTQKVSFVAEVTNGHVKRVHYSTDEDLTRIEQK | -0.24 |
| DERAIRTVTRFWTAIKHNDPDKAVENVDPNARFRIGDREVDGDEDAKQWIEEMKRHMHIDIRSLRARDQGDKIEINFKFVISYNGRPQSQTQHATARVHNGKIHEVDINFDDQKKRELDS | -0.006 |
| DDDLVRKAKKFYEIVETGDEDKIVKMLDKDAQINVGDRRIDGREDIKTFEHKQVQHMRIEFDSVHASHQGDKVRVRAQMTVDVNGNPITYQAEFVFNVKNGRIKNLEQRVDEKEMKKIKS | 0.007 |
| DEDKVNEFMRHFLDVFETGNEKDVKKMADPNAKIEYGDKTLHGRENLRKVIADWRKRVDRIQIEHVDLQGNKARIIVVLNINGRNIRVDIDVNVHNGEIKSIRFEFTDPKTLQRATS | 0.649 |
| DEKVHKIFEHYMTAVNRNNPDRAMRQVDPNAHVEVGDRQISGRENLRETVEKLNKHARINYRDFDAELHGDKVNVDLDIRMEYNGKPYSDHVIIIFRAQGDKIKHMTNDIDPDVEHHFEQ | 0.081 |
| DEDDQKNFSQMLNALDTGDEKRVVELADPNAKVEYGDKTYSGMEKYAHDRAKQRKEWRYHQTIDKVNVKNGRVEIHMKANFKINGQPRSMRFSVTVEAHNGKLKNLDFRFSEEDRKKLEG | -0.024 |
| DDELEEQVKKWLENLKNNNEEELQKQMDPNAKMQYGDKEYHGMHDALKTLAQEDRELRYNVRIISINVQGDRVHITRRINRDHDGRPSQKKYKLNLRLHNGRNQHFREQEDG | -0.102 |
| DKKDVDRVIKLLEQGDWESLVEMMDENARLQVGNKNYHGRTQVRHAATRLQDRIDHVKIDQVDVHNGRVDARFKANINGKTMDVQVRINVDNGHIKYVRVTVRSEELRHELDRLLS | 0.961 |
| DEEKNREVKRFLDVMQKGDEDKLRRNVDPNVRFHIGDKTVQGHESFVEQLKTEKQHLRLRIDIKSVRATGNDIEVTAKVEYEHNGQPQHKELQIDVKMHNGRVKTIRYTRRG | 0.224 |
